In the Immune Epitope Database (IEDB) one finds Kd and IC50 data, which are given here for 29 sequences.

Assay [1] addresses HLA-B*40:01. Kind of assay: IEDB peptide-MHC binding, purified MHC/competitive/fluorescence; filed as Kd, often an IC50 or EC50 that approximates it; ≥ and ≤ were set here for values at or beyond the usual limits of such assays.
Assay [2] deals with HLA-B*08:01. Nature of the assay: IEDB peptide-MHC binding, purified MHC/competitive/fluorescence; ≥ and ≤ were set here for values at or beyond the usual limits of such assays.
Assay [3] has as its target HLA-C*12:03. Nature of the assay: IEDB peptide-MHC binding, purified MHC/direct/fluorescence; filed as Kd, often an IC50 or EC50 that approximates it; ≥ and ≤ were set here for values at or beyond the usual limits of such assays.
For assay [4], the target named is HLA-B*08:01. Nature of the assay: IEDB peptide-MHC binding, purified MHC/competitive/fluorescence; filed as Kd, often an IC50 or EC50 that approximates it; ≥ and ≤ were set here for values at or beyond the usual limits of such assays. Particulars: source organism: Escherichia coli.
For assay [5], the target named is HLA-B*39:01. The assay is described as above. Particulars: source organism: Escherichia coli.
The target of assay [6] is HLA-A*01:01. Described as above.
Assay [7] has as its target HLA-B*07:02. Described as above.
Assay [8] addresses HLA-A*02:01. Nature of the assay: IEDB peptide-MHC binding, purified MHC/direct/fluorescence; filed as Kd, often an IC50 or EC50 that approximates it; ≥ and ≤ were set here for values at or beyond the usual limits of such assays. Particulars: source organism: Orthohantavirus hantanense.
For assay [9], the target named is HLA-A*02:11. The assay is described as above. Particulars: source organism: Orthohantavirus sangassouense.
In assay [10] the target is HLA-A*02:12. The description is as above. Particulars: source organism: Orthohantavirus sangassouense.
Assay [11] deals with HLA-A*02:19. Described as above. To be noted: source organism: Orthohantavirus sangassouense.
The target in assay [12] is HLA-A*69:01. The assay is described as above. To be noted: source organism: Orthohantavirus hantanense.
For assay [13], the target named is HLA-A*03:01. Nature of the assay: IEDB peptide-MHC binding, purified MHC/competitive/fluorescence; ≥ and ≤ were set here for values at or beyond the usual limits of such assays.
Assay [14] deals with HLA-A*11:01. Described as above. Particulars: source organism: Variola virus.
Assay [15] concerns the target HLA-A*02:01. Described as above.
Assay [16] addresses HLA-A*24:02. The description is as above. To be noted: source organism: Zaire ebolavirus.
Assay [17] concerns the target HLA-B*15:01. Described as above. Particulars: source organism: Vaccinia virus WR.
The target of assay [18] is HLA-B*15:01. Nature of the assay: IEDB peptide-MHC binding, purified MHC/competitive/fluorescence; filed as Kd, often an IC50 or EC50 that approximates it; ≥ and ≤ were set here for values at or beyond the usual limits of such assays.
Assay [19] concerns the target HLA-B*51:01. Described as above.
Assay [20] has as its target HLA-A*03:01. Nature of the assay: IEDB peptide-MHC binding, purified MHC/direct/fluorescence; filed as Kd, often an IC50 or EC50 that approximates it; ≥ and ≤ were set here for values at or beyond the usual limits of such assays.
The target of assay [21] is HLA-A*11:01. The description is as above.
The target of assay [22] is HLA-A*31:01. Kind of assay: IEDB peptide-MHC binding, purified MHC/competitive/fluorescence; filed as Kd, often an IC50 or EC50 that approximates it; ≥ and ≤ were set here for values at or beyond the usual limits of such assays.
Assay [23] deals with HLA-A*29:02. Described as above. Particulars: source organism: Homo sapiens.
The target of assay [24] is HLA-B*15:42. The description is as above. Particulars: source organism: Homo sapiens.
Assay [25] addresses HLA-B*45:06. The description is as above. Particulars: source organism: Homo sapiens.
In assay [26] the target is HLA-B*83:01. The assay is described as above. Particulars: source organism: Homo sapiens.
Assay [27] concerns the target HLA-A*03:01. Described as above.
Assay [28] has as its target HLA-A*26:01. The assay is described as above. Particulars: source organism: Giardia lamblia ATCC 50803.
The target of assay [29] is HLA-B*15:17. The description is as above. To be noted: source organism: Giardia lamblia ATCC 50803.
For assay [30], the target named is HLA-B*18:01. The assay is described as above. To be noted: source organism: Giardia lamblia ATCC 50803.
The target in assay [31] is HLA-B*27:03. Described as above. To be noted: source organism: Giardia lamblia ATCC 50803.
The target of assay [32] is HLA-B*46:01. Described as above. Particulars: source organism: Giardia lamblia ATCC 50803.
Assay [33] concerns the target HLA-B*57:01. The description is as above. To be noted: source organism: Giardia lamblia ATCC 50803.
Assay [34] concerns the target HLA-C*06:02. Nature of the assay: IEDB peptide-MHC binding, purified MHC/direct/fluorescence; filed as Kd, often an IC50 or EC50 that approximates it; ≥ and ≤ were set here for values at or beyond the usual limits of such assays. To be noted: source organism: Vaccinia virus L-IPV.
For assay [35], the target named is HLA-A*02:01. Kind of assay: IEDB peptide-MHC binding, purified MHC/competitive/radioactivity; filed as Kd, often an IC50 or EC50 that approximates it; ≥ and ≤ were set here for values at or beyond the usual limits of such assays. Particulars: source organism: Vaccinia virus WR.
For assay [36], the target named is HLA-A*02:02. Described as above. Particulars: source organism: Vaccinia virus WR.
Assay [37] has as its target HLA-A*02:03. The assay is described as above. Particulars: source organism: Vaccinia virus WR.
Assay [38] has as its target HLA-A*02:06. The assay is described as above. To be noted: source organism: Vaccinia virus WR.
Where [39] appears, read: source organism: Zaire ebolavirus.
Setting [40] is: source organism: Vaccinia virus WR.
Where [41] appears, read: source organism: Sudan ebolavirus.
Where [42] appears, read: source organism: Shigella boydii CDC 3083-94.
[43] abbreviates: source organism: Influenza A virus (A/nt/60/1968(H3N2)).
Setting [44] is: source organism: Francisella tularensis subsp. holarctica LVS.
Setting [45] is: source organism: Mycobacterium tuberculosis.
[46] abbreviates: source organism: Giardia lamblia ATCC 50803.

Bounds are passed on as bounds.

The term Kd denotes the concentration at which binding is half-saturated. As for EEAKLFFQV, in assay [1] (source organism: Yersinia pestis Antiqua), the dissociation constant Kd amounted to 6.4 nM.

As a reminder, the IC50 is the point on the concentration scale where inhibition reaches its midpoint. A low value points to greater potency. With ERQLAKAII, in [2] (source organism: Vaccinia virus Copenhagen), the half-maximal inhibitory concentration (IC50) was ≥ 111000 nM.

As to FQRAIMNAM, the Kd in assay [3] (source organism: Escherichia coli MS 119-7) worked out at 99 nM; in assay [4], 154 nM; in [5], 37.7 nM.

ITDMRNGFN: the dissociation constant Kd in assay [6] (source organism: Escherichia coli O139:H28 str. E24377A) was ≥ 20000 nM.

The sequence HEYQGKAVL came in with a dissociation constant Kd in assay [1] (source organism: Bacillus anthracis str. A0488) of 5.1 nM.

Consider LEPRVFGWM, for which the Kd in [1] (source organism: Escherichia coli F11) turned out to be 71.3 nM.

As for YYFQSGNEI, the Kd in [3] (source organism: human gammaherpesvirus 4) was ≥ 20000 nM.

Turning to APSPYNSRF, the Kd in assay [7] (source organism: Influenza A virus) came out at 7.1 nM.

As to FIYGYLEPV, the Kd in [8] is ≤ 1 nM; in assay [9], ≤ 1 nM; in assay [10], ≤ 1 nM; in assay [11], 2 nM; in [12], ≤ 1 nM; in assay [3] (source organism: Orthohantavirus) it was 12 nM.

For the sequence AVARKHHTK, the concentration for half-maximal inhibition (IC50) in assay [13] (source organism: Variola virus) was 1460 nM; in assay [14], 471 nM; in assay [2] (source organism: Variola virus), ≥ 436000 nM.

For LETCHRNAF, the Kd in assay [1] (source organism: Escherichia coli 536) is 1030 nM.

In the case of GLLIVKTVL, the IC50 in assay [15] (setting [39]) was 294 nM; in assay [16], ≥ 105000 nM; in assay [2] (setting [39]), ≥ 135000 nM.

The sequence LPFQNIHPITI returned a dissociation constant Kd in assay [7] (source organism: Influenza A virus (A/duck/Bavaria/1/1977(H1N1))) of 57.4 nM.

In assay [1] (source organism: Salmonella enterica subsp. enterica serovar Typhi), IEHALAHQL returned a Kd of 7.7 nM.

Consider ELRTFSILN, for which the results for the IC50 in assay [16] and in assay [2] (setting [39]) were 30100 nM and ≥ 302000 nM, respectively.

Consider FMHEQGYSH, for which the IC50 in assay [15] (setting [40]) is 9720 nM; in assay [2] (setting [40]), ≥ 301000 nM; in assay [17], 14800 nM.

Take FLRATTELR: the IC50 in assay [15] (setting [41]) was 56200 nM; in [13] (setting [41]) it was 26100 nM; in assay [2] (setting [39]), ≥ 87800 nM.

For the sequence TPAVCGPVI, the Kd in [7] (setting [42]) is 23.8 nM; in [18] (setting [42]), ≥ 20000 nM; in [19] (setting [42]), 1860 nM.

For the sequence YQFTGIKKY, the Kd in [3] (source organism: Homo sapiens) is ≤ 1 nM.

Take NPRMFLAM: the dissociation constant (Kd) in assay [7] (source organism: Influenza A virus (A/Fort Monmouth/1/1947-mouse adapted(H1N1))) was found to be 372 nM.

As for NELGVPFHL, the Kd in [1] (setting [43]) turned out to be 2.1 nM.

For the sequence LLAKSVFNSLY, in [6] (source organism: Influenza A virus (A/X-31(H3N2))), the Kd was 93 nM.

Take GDIKASNIV: in assay [2] (setting [40]), the IC50 is ≥ 298000 nM.

As to AIYESNIGY, the dissociation constant Kd in assay [20] (setting [44]) was 8.3 nM; in [21] (setting [44]), 15.1 nM; in [22] (source organism: Francisella tularensis subsp. tularensis FSC198) it was ≥ 20000 nM.

Take STMRRMALR: the Kd was ≥ 20000 nM in assay [6] (source organism: Homo sapiens); ≥ 20000 nM in assay [23]; ≥ 5000 nM in assay [24]; ≥ 5000 nM in assay [25]; ≥ 5000 nM in [26].

For the sequence TIHDRIPHR, the Kd amounted to 61.9 nM in assay [27] (setting [43]) and 20.4 nM in assay [22] (setting [43]).

In the case of GTAPPPLTR, the Kd was determined as 320 nM in [20] (setting [45]), 20.4 nM in [21] (setting [45]) and 3.77 nM in assay [22] (source organism: Mycobacterium tuberculosis variant bovis BCG str. Pasteur 1173P2).

As for TMNSRYYLV, the Kd in assay [27] (setting [46]) was ≥ 20000 nM; in [28], ≥ 20000 nM; in assay [22] (setting [46]), 72.5 nM; in [18] (setting [46]), ≥ 20000 nM; in assay [29], ≥ 20000 nM; in assay [30], ≥ 20000 nM. Besides, the dissociation constant (Kd) in assay [31], in assay [32], in assay [19] (setting [46]) and in assay [33] was ≥ 20000 nM in each case.

With VLPFDIKYI, the dissociation constant (Kd) was determined as 3390 nM in [34]; 15 nM in assay [35]; 135 nM in assay [36]; 9.68 nM in assay [37]; 506 nM in [38].
